# Experimental data from patent publication US20220112288A1 (published 2022).
# How the values were obtained:
# [1] = biological target: T1, human CD4 on cells (SKW3 cells; human PBMCs) (human, UniProt P01730 26-458); assay: FACS confirmation, supernatant on SKW3 cells; background gMFI 2500
# T1 construct: whole, on cells; SKW3 CD4 knockout cells served as the negative cell line in the primary screen; also called hCD4; huCD4
# [2] = biological target: T1, human CD4 on cells (SKW3 cells; human …); assay: FACS confirmation, supernatant on human PBMCs;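 further: flow cytometry with hybridoma supernatants incubated on human PBMCs for 30 min at 4 °C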
# [3] = biological target: T1, human CD4 on cells (SKW3 cells; human …); assay: FACS binning on SKW3 cells; competitor RPA-T4-PE-Dazzle 594; background 783, max binding 15000
# huCD4-HIS = biological target: T2, huCD4-HIS (human, UniProt P01730 26-390, limits assumed); assay: ELISA binning; competitor ibalizumab; 100 ng/mL huCD4-HIS, anti-HIS HRP; background 45, max binding 3000000
# T2 construct: the ELISA is not described in the text of this stretch; also called human CD4-HIS
# [4] = biological target: T1, human CD4 on cells (SKW3 cells; human …); assay: FACS binning on SKW3 cells; competitor OKT4a; background 5000, max binding 35000
# [5] = biological target: T1, human CD4 on cells (SKW3 cells; human …); assay: FACS primary screen, hybridoma supernatant, SKW3 vs SKW3 CD4 KO cells;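 further: flow cytometry on mixed SKW3 and dye-labeled SKW3 CD4 knockout cells after 30 min at 4 °C with supernatant, ratio of binding signal on parental versus knockout cells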
# [6] = biological target: T1, human CD4 on cells (SKW3 cells; human …); assay: FACS confirmation, supernatant on SKW3 cells; background gMFI 3300
# [7] = biological target: T1, human CD4 on cells (SKW3 cells; human …); assay: FACS binning on SKW3 cells; competitor OKT4-A488; background 2163, max binding 8200
# [8] = biological target: T3, human CD4 on cells (SKW3 cells; human PBMCs) (human, UniProt P01730 26-458); assay: FACS primary screen, non-clonal hybridoma supernatant; SKW3 WT vs SKW3 CD4 KO cells, anti-hKappa-FITC
# T3 construct: whole, on cells; SKW3 CD4 knockout cells served as the negative cell line for the WT vs KO ratios; also called hCD4; SKW3 WT
# [9] = biological target: T3, human CD4 on cells (SKW3 cells; human …); assay: FACS confirmation, supernatant on human PBMCs, anti-mFc 647, CD4+ gate
# [10] = biological target: T3, human CD4 on cells (SKW3 cells; human …); assay: FACS confirmation, supernatant on SKW3 WT cells, anti-mFc 647 (Bkrd gMFI = 3300)
# [11] = biological target: T3, human CD4 on cells (SKW3 cells; human …); assay: FACS primary screen, non-clonal hybridoma supernatant; SKW3 WT vs SKW3 CD4 KO cells, anti-mFc-647
# [12] = biological target: T3, human CD4 on cells (SKW3 cells; human …); assay: FACS confirmation, supernatant on SKW3 WT cells, anti-hu Kappa FITC (Bkrd gMFI = 2500)
# [13] = biological target: T3, human CD4 on cells (SKW3 cells; human …); assay: FACS confirmation, supernatant on human PBMCs, anti-mFc 647, percent of viable cells
Binder,"gMFI on SKW3 WT, anti-hu Kappa FITC [1]","PBMCs CD4+ gate RL1 binding, anti-mFc 647 [2]",RPA-T4-PE-Dazzle 594 signal with supernatant [3],Ibalizumab ELISA binning signal (huCD4-HIS),OKT4a signal (anti-hu A647) with supernatant [4],"SKW3 WT vs KO ratio, anti-hKappa-FITC [5]","SKW3 WT vs KO ratio, anti-mFc-647 [5]","gMFI on SKW3 WT, anti-mFc 647 [6]",OKT4-A488 signal with supernatant [7],SKW3 WT vs KO anti-hKappa-FITC [8],CD4+ gate RL1 Binding [9],gMFI [10],SKW3 WT vs KO anti-mFc-647 [11],gMFI [12],PBMCs CD4+ percent bound of viable [2],CD4+ Percent Bound of Viable [13]
"75110_06C16A (antibody, V domains shown, Tested as non-clonal AlivaMab Mouse Kappa hybridoma supernatant (detected with anti-mouse Fc gamma and anti-human kappa)) VH: QVQLQESGPGLVTPSETLSLSCTVSGGSISDYYWSWIRQPGGKGLEWIGRIYSSGSTNYNPSLKSRVTMSVDTSKNQFSLKLSSVTAADTAVYFCARDREDYYYYGMDVWGQGTTVTVSS VL: DIQMTQSPSSLSASVGDRVTITCQASHDISNYLNWYQQKPGKAPKLLIYAASNLETGVPSRFSGSGSGTDFSFTISSLQPEDIATYYCQQYDHLPLTFGGGTKVEIK",4660 gMFI,297000,15600,1.35e+06,36800,1.9,5,12100 gMFI,8240,,,,,,28%,
"75110_06G04A (antibody, V domains shown, Tested as non-clonal AlivaMab Mouse Kappa hybridoma supernatant (detected with anti-mouse Fc gamma and anti-human kappa)) VH: QVQLLESGPGLVKPSETLSLTCTVSGGSISSYYWSWIRQPAGKGLEWIGRIYISGSTNYNPSLKSRVTMSIDTSENQFSLNLSSVTAADTAVYYCARELERPYYYGMDVWGQGTTVTVSS VL: DIQMTQSPSSLSASVGDRVTITCQASQDISNYLNWYQQKPGKAPKLLIYNASTLETGVPSRFSGSGSGTDFTFTISSLQPEDIATYYCQQYDNLPLTFGGGTKVEFK",8480 gMFI,240000,16600,1.96e+06,30800,3.3,9.3,33700 gMFI,9310,,,,,,30%,
"75110_06K03A (antibody, V domains shown, Tested as non-clonal AlivaMab Mouse Kappa hybridoma supernatant (detected with anti-mouse Fc gamma and anti-human kappa)) VH: QVQLQESGPGLVKPSETLSLTCTVSGGSISTYYWSWIRQPAGKGLEWIGRINTSGSTTYNPSLKSRVTMSVDTSKNQFSLKLSSVTAADTAVYYCARELERYYYYGMDVWGQGTTVTVSS VL: DIQMTQSPSSLSASVGDRVTITCQASQDISNYLNWYQQKPGKAPKLLIYYASILETGVPSRFSGSGSGTDFTFTISSLQPEDIATYYCQQYDSLPLTFGGGTKVEIK",8640 gMFI,296000,15800,1.65e+06,33200,2.7,7.5,33600 gMFI,9140,,,,,,32%,
"75110_03I08A (antibody, V domains shown, Tested as non-clonal hybridoma supernatant (AlivaMab Mouse Kappa), detected with anti-mouse Fc and anti-human kappa) VH: QVQLQESGPGLVKPSETLSLTCTVSGGSISSYYWSWIRQPPGKGLEWIGYIYYSGSTNYNPSLKSRVTISVDTSKNQFSLKLSSVTAADTAVYYCAREGEQWFYGLDVWGQGTTVTVSS VL: EIVLTQSPGTLSLSPGERATLSCRASQSVSSTYLAWYQQKPGQAPRLLIYGSSSRATGIPDRFSGSGSGTDFTLTISRLEPEDFAVYYCQQYGNSFPITFGQGTRLEIK",,,,,,,,,,2.2 fold,338000,28000 gMFI,7.6 fold,6120 gMFI,,32%
"75110_08F20A (antibody, V domains shown, Tested as non-clonal AlivaMab Mouse Kappa hybridoma supernatant (detected with anti-mouse Fc gamma and anti-human kappa)) VH: QVQLQESGPGLVKPSETLSLTCSVSGGSISTYYWSWIRQPAGKGLEWIGRICTTENTNYNPSLKSRVTMSIDSSKNQFSLKLSSVTAADTAVYYCARDLERLNYYGMDVWGQGATVTVSS VL: DIQMTQSPSSLSASVGDRVTITCQASQDISKYLNWYQQKPGIAPKLLIYDASNLETGVPSRFSGSGSGTDFTFTISSLQPEDFATYYCQQYDSLPITFGQGTRLEIK",6170 gMFI,253000,15500,1.41e+06,44800,1.7,3.1,31500 gMFI,7410,,,,,,32%,
"75110_05G15A (antibody, V domains shown) VH: QVQLQESGPGLVKPSQTLSLTCTVSGGSISSGGYFWSWIRQHPGKGLEWIGCIYYSGSTYYIPSLKSRVTISVDTSKNQFSLKLRSVTAADTAVYYCARDGYDYWYFDLWGRGTLVTVSS VL: not shown",6000 gMFI,147000,15800,1.7e+06,42300,1.5,2.8,28600 gMFI,8080,,,,,,32%,

# Second part, led by results:
"gMFI on SKW3 WT, anti-hu Kappa FITC [1]","PBMCs CD4+ gate RL1 binding, anti-mFc 647 [2]",RPA-T4-PE-Dazzle 594 signal with supernatant [3],Ibalizumab ELISA binning signal (huCD4-HIS),OKT4a signal (anti-hu A647) with supernatant [4],"SKW3 WT vs KO ratio, anti-hKappa-FITC [5]","SKW3 WT vs KO ratio, anti-mFc-647 [5]","gMFI on SKW3 WT, anti-mFc 647 [6]",OKT4-A488 signal with supernatant [7],SKW3 WT vs KO anti-hKappa-FITC [8],CD4+ gate RL1 Binding [9],gMFI [10],SKW3 WT vs KO anti-mFc-647 [11],gMFI [12],Binder,PBMCs CD4+ percent bound of viable [2],CD4+ Percent Bound of Viable [13]
6230 gMFI,344000,15500,1.66e+06,36100,2.8,7.8,30400 gMFI,9010,,,,,,"75110_07N04A (antibody, V domains shown, Tested as non-clonal AlivaMab Mouse Kappa hybridoma supernatant (detected with anti-mouse Fc gamma and anti-human kappa)) VH: QVQLQESGPGLVKPSETLSLTCSVSGVSSTSFYWSWIRQPAGKGLDWIGRIYTSGSTNYNPSLKSRVTMSVDTSKNQFSLKLSSVTAADTAVYYCARDPGYSDAFAIWGQGTMVTVSS VL: not shown",30%,
3570 gMFI,278000,14600,887000,42500,1.1,4.1,20100 gMFI,7930,,,,,,"75110_08D24A (antibody, V domains shown, Tested as non-clonal AlivaMab Mouse Kappa hybridoma supernatant (detected with anti-mouse Fc gamma and anti-human kappa)) VH: QVQLQESGPGLVKPSETLSLTCTVSGGSISGFYWSWIRQPAGKGLEWIGRIYTSENTNYNPSLKSRVTMSVDTSKNQFSLKLSSVTAADTAVYYCARDREGYYYYGMDVWGQGTTVTVSS VL: DIQMTQSPSSLSASVGDRVTITCQASQDISNYLNWYQQKPGKAPKLLIYAASNLETGVPSRFSGSGSGTDFTFTISSLQPEDIATYYCQQYDSLPITFGQGTRLEIK",30%,
5840 gMFI,314000,16200,1.69e+06,38400,2.4,5.7,19400 gMFI,8890,,,,,,"75110_08G08A (antibody, V domains shown, Tested as non-clonal AlivaMab Mouse Kappa hybridoma supernatant (detected with anti-mouse Fc gamma and anti-human kappa)) VH: QVQLQESGPGLVKPSETLSLTCSVSGGSISTYYWSWIRQPAGKGLEWIGRICTTENTNYNPSLKSRVTMSIDSSKNQFSLKLSSVTAADTAVYYCARDLERLNYYGMDVWGQGATVTVSS VL: DIQMTQSPSSLSASVGDRVTITCQASQDISNYLNWYQQKPGIAPKLLIYDASNLETGVPSRFSGSGSGTDFTFTISSLQPEDIATYYCQQYDSLPITFGQGTRLEIK",30%,
3980 gMFI,89200,15900,1.98e+06,38000,1.3,2.3,13400 gMFI,8050,,,,,,"75110_07J02A (antibody, V domains shown, Tested as non-clonal AlivaMab Mouse Kappa hybridoma supernatant (detected with anti-mouse Fc gamma and anti-human kappa)) VH: EVQLVESGGGLVQPGGSLRLSCAASGFTFSSYWMSWVRQAPGKGLEWVANIKEDGSEKYYVDSVKGRFTISRDNAKNSLYLQMNSLRAEDTAVYYCARDGSYSGYGMDVWGQGTTVTVSS VL: AIQMTQSPSSLSASVGDRVTITCRASQGIRNDLGWYQQKPGKAPKLLIYAASSLQSGVPSRFSGRGSGTDFALTISSLQPEDFATYYCLLDYNYPYTFGQGTRLEIK",27%,
